Assays:
[1] = target: human membrane attack complex (C5b-9) formed from normal human serum on mouse cells (human) (UniProt P01031); experiment: cell-based or functional assay
[2] = target: human membrane attack complex (C5b-9) formed from normal human serum on mouse cells (human, UniProt P01031 752-1676; P13671 22-934; P10643 23-843; P07357 31-584; P07358 55-591; …); experiment: cell-based or functional assay

complement mediated cell lysis (PI uptake, FACS; hepa-1c1c7 cells, 1000 vp/cell AdCAGCD59, 1% NHS) [1] [%] | fold reduction of complement mediated cell lysis (PI uptake, FACS; hepa-1c1c7 cells, 1000 vp/cell AdCAGCD59, 1% NHS) [1] [fold] | inhibition of cell lysis at 250 vp/cell AdCAGCD59 (hepa-1c1c7 cells, NHS) [1] [%] | inhibition of cell lysis at 500 vp/cell AdCAGCD59 (hepa-1c1c7 cells, NHS) [1] [%] | reduction in MAC immunofluorescence intensity on mouse corneal endothelium (ex vivo, 50% NHS, 20 minutes) [1] [%] | reduction in MAC immunofluorescence on mouse eyecups, 7.5 minutes NHS [1] [%] | reduction in MAC immunofluorescence on mouse eyecups, 15 minutes NHS [1] [%] | reduction in mean MAC immunofluorescence intensity on mouse eyecup RPE at the area of GFP expression [1] [%] | protection against cell lysis relative to AdCAGGFP-conditioned media with NHS (Hepa-1c1c7 cells) [2] [%] | Binder
12.3 | 8 | > 50 | > 70 | 86 | 68 | 56 | 55 |  | human CD59, GPI-anchored membrane form expressed from the AdCAGCD59 vector (protein, UniProt P13987 26-102, looked up, glycosyl phosphatidyl inositol (GPI) anchor at asparagine 77 of the mature protein; N-glycosylated) LQCYNCPNPTADCKTAVNCSSDFDACLITKAGLQVYNKCWKFEHCNFNDVTTRLRENELTYYCCKKDLCNFNEQLEN
 |  |  |  |  |  |  |  | 34.1 | membrane-independent (soluble) human CD59 lacking the C-terminal 26 amino acids, expressed from AdCAGsCD59 or AAVCAGsCD59 (other, N-glycosylated forms (14-18 kDa)) LQCYNCPNPTADCKTAVNCSSDFDACLITKAGLQVYNKCWKFEHCNFNDVTTRLRENELTYYCCKKDLCNFNEQLEN
